B1: STS2-HP (STS2 histidine phosphatase domain) (Homo sapiens) (protein)
chain: SLQALQATVARKSVLVVRHGERVDQIFGKAWLQQCSTPDGKYYRPDLNFPCSLPRRSRGIKDFENDPPLSSCGIFQSRIAGDALLDSGIRISSVFASPALRCVQTAKLILEELKLEKKIKIRVEPGIFEWTKWEAGKTTPTLMSLEELKEANFNIDTDYRPAFPLSALMPAESYQEYMDRCTASMVQIVNTCPQDTGVILIVSHGSTLDSCTRPLLGLPPRECGDFAQLVRKIPSLGMCFCEENKEEGKWELVNPPVKTLTHGANAAFNWRNWISGN
B2: STS1-HP (STS1 histidine phosphatase domain) (Homo sapiens) (protein)
chain: GPQKRCLFVCRHGERMDVVFGKYWLSQCFDAKGRYIRTNLNMPHSLPQRSGGFRDYEKDAPITVFGCMQARLVGEALLESNTIIDHVYCSPSLRCVQTAHNILKGLQQENHLKIRVEPGLFEWTKWVAGSTLPAWIPPSELAAANLSVDTTYRPHIPISKLVVSESYDTYISRSFQVTKEIISECKSKGNNILIVAHASSLEACTCQLQGLSPQNSKDFVQMVRKIPYLGFCSCEELGETGIWQLTDPPILPLTHGPTGGFNWRETLLQE

Substrate: O=[N+]([O-])c1ccc(OP(=O)(O)O)cc1
Assay: purified protein
Type: biochemical, Homo sapiens
Settings: 25 mM HEPES, 50 mM NaCl, 5 mM DTT, 2.5 mM EDTA, pH 7.2, 25 °C
[1] = 20 min, text (b9) says STS2 has lower Km than STS1, against the table

Protein	Km [1] [mM]	kcat [1] [s⁻¹]	kcat/Km [1] [M⁻¹ s⁻¹]	Km (10 min) [mM]	kcat (10 min) [s⁻¹]	kcat/Km (10 min) [M⁻¹ s⁻¹]
B1	5.39 ± 0.52	0.27 ± 0.005	50.5 ± 4.51			
B2				3.52 ± 0.44	67.7 ± 1.31	19500 ± 2100
